The test concerns the target HA-Ago2K212A, in Ago2-knockout A549 and HCC1806 cells (human) (UniProt Q9UKV8). Nature of the test: co-IP; Ago2-knockout A549 and HCC1806 cells expressing HA-Ago2Wt, HA-Ago2K212A or HA-Ago2K212R; IP with anti-HA, blot for endogenous CAV1; ratio pCAV1/pHA; vehicle or TM (10 µM).

As for “Caveolin-1 (CAV1), endogenous (from UniProt Q03135 1-178) (natural protein)”, the percent decrease of co-precipitated CAV1 per precipitated HA-Ago2 (pCAV1/pHA) against HA-Ago2Wt is 46%.

Source of the values: article PMC11094075.
